The target of the assay is GluA2 AMPAR (expressed in HEK293T) (UniProt P23819). The assay can be described thus: SPR.
Sequence of UniProt P23819 (P23819 25-883): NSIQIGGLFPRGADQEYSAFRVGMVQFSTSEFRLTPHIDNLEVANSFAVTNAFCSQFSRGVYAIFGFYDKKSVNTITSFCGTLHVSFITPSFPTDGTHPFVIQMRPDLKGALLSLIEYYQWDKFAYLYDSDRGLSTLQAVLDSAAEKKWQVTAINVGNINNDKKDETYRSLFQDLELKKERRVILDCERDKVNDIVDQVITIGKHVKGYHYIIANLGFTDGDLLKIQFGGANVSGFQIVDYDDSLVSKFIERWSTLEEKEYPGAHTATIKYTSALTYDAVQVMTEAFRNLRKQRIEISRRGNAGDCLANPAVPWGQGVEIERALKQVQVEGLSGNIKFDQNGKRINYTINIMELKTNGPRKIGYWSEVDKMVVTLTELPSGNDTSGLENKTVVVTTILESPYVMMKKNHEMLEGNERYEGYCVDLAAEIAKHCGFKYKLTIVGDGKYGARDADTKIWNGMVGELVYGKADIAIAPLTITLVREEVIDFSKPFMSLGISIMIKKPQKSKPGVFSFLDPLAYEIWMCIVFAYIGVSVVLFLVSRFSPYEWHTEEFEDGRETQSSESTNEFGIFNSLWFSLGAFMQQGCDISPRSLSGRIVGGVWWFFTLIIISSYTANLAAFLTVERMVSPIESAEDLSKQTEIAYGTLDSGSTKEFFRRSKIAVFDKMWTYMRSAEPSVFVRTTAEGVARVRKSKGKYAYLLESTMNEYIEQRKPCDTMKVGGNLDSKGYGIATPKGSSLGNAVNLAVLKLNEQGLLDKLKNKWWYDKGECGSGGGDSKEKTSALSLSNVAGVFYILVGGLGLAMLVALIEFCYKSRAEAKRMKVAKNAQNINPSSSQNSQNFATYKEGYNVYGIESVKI

As for “Noelin1-3 (untagged, expressed in HEK293T) (natural protein)”, the Kd worked out at 1 nM and the koff turned out to be 0.002 s⁻¹.

As usually defined, the Kd is the concentration at which binding is half-saturated. The low end stands for tighter binding, the high end for weaker binding. Broadly, the koff is the first-order rate constant of dissociation. Read a high koff as fast dissociation.

Source of the values: publication PMC6088136.
